B1: tSPF: truncated supernatant protein factor, amino acids 1 to 275 of SPF (SEQ ID NO: 2), without secretion signal; control expressed from pSEC-tSPF (protein)
chain: MSGRVGDLSPRQKEALAKFRENVQDVLPALPNPDDYFLLRWLRARSFDLQKSEAMLRKHVEFRKQKDIDNIISWQPPEVIQQYLSGGMCGYDLDGCPVWYDIIGPLDAKGLLFSASKQDLLRTKMRECELLLQECAHQTTKLGRKVETITIIYDCEGLGLKHLWKPAVEAYGEFLCMFEENYPETLKRLFVVKAPKLFPVAYNLIKPFLSEDTRKKIMVLGANWKEVLLKHISPDQVPVEYGGTMTDPDGNPKCKSKINYGGDIPRKYYVRDQVK
modifications: truncated SPF
B2: Suc2-tSPF: fusion protein of Suc2 signal peptide at N-terminus of tSPF (SEQ ID NO: 23), expressed in yeast from pSEC-Suc2-tSPF (protein)
chain: MLLQAFLFLLAGFAAKISAMEFSGRVGDLSPRQKEALAKFRENVQDVLPALPNPDDYFLLRWLRARSFDLQKSEAMLRKHVEFRKQKDIDNIISWQPPEVIQQYLSGGMCGYDLDGCPVWYDIIGPLDAKGLLFSASKQDLLRTKMRECELLLQECAHQTTKLGRKVETITAIYDCEGLGLKHLWKPAVEAYGEALCMFEENYPETLKRLFVVKAPKLFPVAYNLIKPFLSEDTRKKIMVLGANWKEVLLKHISPDQVPVEYGGTMTDPDGNPKCKSKINYGGDIPRKYYVRDQVK
modifications: Suc2-tSPF
B3: Pho5-tSPF: fusion protein of Pho5 signal peptide at N-terminus of tSPF (SEQ ID NO: 24), expressed in yeast from pSEC-Pho5-tSPF (protein)
chain: MFKSVVYSILAASLANAMEFSGRVGDLSPRQKEALAKFRENVQDVLPALPNPDDYFLLRWLRARSFDLQKSEAMLRKHVEFRKQKDIDNIISWQPPEVIQQYLSGGMCGYDLDGCPVWYDIIGPLDAKGLLFSASKQDLLRTKMRECELLLQECAHQTTKLGRKVETITAIYDCEGLGLKHLWKPAVEAYGEALCMFEENYPETLKRLFVVKAPKLFPVAYNLIKPFLSEDTRKKIMVLGANWKEVLLKHISPDQVPVEYGGTMTDPDGNPKCKSKINYGGDIPRKYYVRDQVK
modifications: Pho5-SPF
B4: MFα-tSPF: fusion protein of MFα signal peptide at N-terminus of tSPF (SEQ ID NO: 25), expressed in yeast from pSEC-MFα-tSPF (protein)
chain: MRFPSIFTAVLFAASSALAAPVNTTTEDETAQIPAEAVIGYSDLEGDFDVAVLPFSNSTNNGLLFINTTIASIAAKEEGVSLEKREAEAMEFSGRVGDLSPRQKEALAKFRENVQDVLPALPNPDDYFLLRWLRARSFDLQKSEAMLRKHVEFRKQKDIDNIISWQPPEVIQQYLSGGMCGYDLDGCPVWYDIIGPLDAKGLLFSASKQDLLRTKMRECELLLQECAHQTTKLGRKVETITAIYDCEGLGLKHLWKPAVEAYGEALCMFEENYPETLKRLFVVKAPKLFPVAYNLIKPFLSEDTRKKIMVLGANWKEVLLKHISPDQVPVEYGGTMTDPDGNPKCKSKINYGGDIPRKYYVRDQVK
modifications: MF-tSPF

Legend:
Type in all cases: cell-based, Saccharomyces cerevisiae
[1] = system: SQ strain; test: Western blot analysis of cell lysates and culture supernatant of transformed SQ strains (anti-His tag); details: medium without dodecane layer
Method: FIG. 4 is a diagram showing the results of western blot analysis of the cell lysates and the culture supernatant obtained after culturing the SQ strains that were each transformed with the Suc2-tSPF, Pho5-tSPF and MFα-tSPF fusion protein genes. To confirm the extracellular secretion of the tSPF fusion protein, yeast cells were cultured in a flask ([…]) containing 50 mL minimal medium (e.g., YSC medium; 0.67% (w/v) yeast nitrogen base without amino acids (BD Difco, USA), 0.19% (w/v) yeast synthetic drop-out medium supplements without uracil (Sigma-Aldrich, USA)) supplemented with 2% (w/v) glucose while stirring at 30° C. […] To extract intracellular proteins from the cultured yeast cells in an amount corresponding to an OD600 value of 100, the cells were resuspended 1 mL of cell lysis buffer (1 mL RIPA buffer, Thermo Scientific, MA, USA) containing protease inhibitor (1× protease inhibitor cocktail, Roche Diagnostics, Mannheim, Germany). The suspension was homogenized by using a sonicator, for 6 minutes at 20% amplitude and 3 second intervals. The extracellular proteins in the supernatant of the culture medium were added to a solution in which trichloroacetic acid solution was added to 50 mL of the supernatant to account for 25%, and incubated for 30 minutes to precipitate proteins, followed by centrifugation at 4° C. for 40 minutes. The precipitated proteins were washed three times with 1 ml of cold acetone, and then resuspended in 50 μl of sterile water. The resuspended proteins were further concentrated by using 30 kDa am icon ultra centrifugal filters.
The protein samples thus prepared, i.e. the cell lysates, were mixed with 5×SDS sample buffer and separated by 10% SDS-PAGE. The proteins separated on the SDS-PAGE gel were transferred to a PVDF membrane, and blocked by incubation for one day in TBST containing 4% skim milk. The PVDF membrane was reacted with a solution containing primary antibodies at room temperature for 1 hour, and then washed with a TBST solution three times. As the primary antibody, an anti-actin antibody or an anti-His tag antibody was used. The fusion protein included a 6×His tag sequence at the C-terminus. The washed PVDF membrane was reacted again in a solution containing peroxidase-conjugated anti-IgG antibodies at room temperature for 1 hour. The PVDF membrane in which the antibody-conjugated proteins were present was visualized by using the ChemiDoc imaging system.

[2] = system: CEN.PK2-1D yeast cells; test: Beta-carotene production and secretion by CEN.PK2-1D yeast cells co-transformed with p415-BC and pSEC-tSPF or pSEC-Suc2-tSPF; details: for Intracellular (mg/L) / Intracellular (mg/g): beta-carotene in cells; for Extracellular: beta-carotene in dodecane layer
Source text: Through the same process as described in Section (1.2) of Example 1, the S. cerevisiae wild strain CEN.PK2-1D was co-transformed with the p415-BC vector manufactured in Section (1.2) and either pSEC-tSPF or pSEC-Suc2-tSPF, to manufacture yeast cells transformed with a vector expressing tSPF fused to a signal peptide.
CEN.PK2-1D yeast cells, which were co-transformed with the p415-BC vector obtained in Section (2.2) and either pSEC-tSPF or pSEC-Suc2-tSPF and were able to overproduce beta-carotene, were cultured for 144 hours under the same conditions as described in Section (1.3) of Example 1. Then, the amount of beta-carotene in the cultured cells and outside the cells was measured. The amount of beta-carotene was measured in the same method as the methods for cell lysis and dodecane layer separation used for the measurement of the squalene concentration. Table 2 and FIG. 6 show the amount of beta-carotene produced by culturing the CEN.PK2-1D yeast cells co-transformed with the p415-BC vector and either pSEC-tSPF or pSEC-Suc2-tSPF.

[3] = system: SQ strain; test: Squalene production and secretion by SQ strains transformed with tSPF fused to a secretion signal sequence (HPLC of cell lysate and dodecane layer); details: for Intracellular (mg/L) / Intracellular (mg/g): squalene in cells; for Extracellular: squalene in dodecane layer
Method: The SQ strains transformed with the pSEC-Suc2-tSPF, pSEC-Pho5-tSPF, and pSEC-MFα-tSPF expression vectors were cultured in flask ([…]) containing 50 mL of minimal medium (e.g., YSC medium; 0.67% (w/v) yeast nitrogen base without amino acids (BD Difco, USA), 0.19% (w/v) yeast synthetic drop-out medium supplements without uracil (Sigma-Aldrich, USA)) while stirring at 250 rpm at 30° C.
After culturing for 72 hours and 144 hours, the culture was centrifuged at 4,000 rpm to be separated into cells, a culture supernatant, and a dodecane layer. Then, the concentration of squalene in the separated cells and dodecane layer was measured. To measure the squalene concentration in the cells, the cells were resuspended in 600 μL of a mixed solution containing methanol and acetone at 1:1, transferred to a tube containing lysing matrix C (glass bead, MP Biomedicals, USA), and then underwent cell lysis by using a FastPrep-24 5G homogenizer (MP Biomedicals, USA). By centrifugation at 13,000 rpm, the lysed cells and intracellular metabolites including squalene dissolved from the lysed cells were separated.
Next, the squalene concentration in the cell lysate was measured. To measure the squalene concentration in the cell lysate, the concentration was measured by using an Agilent HPLC system after filtering the cell lysate through a 0.2 μm syringe filter.
In addition, the dodecane layer separated by centrifugation was also filtered in the same way, and then the squalene concentration was measured by using an HPLC system. […] FIGS. 2A and 2B show the squalene concentrations outside the cells or in the cells, wherein the cells were produced by yeast cells including the polynucleotide encoding tSPF fused to the secretion signal sequence.

Molecule | western blot band in cell lysate [1] | western blot band in culture supernatant ([1]; culture supernatant) | Intracellular (mg/L) ([2]; 144 hours) | Intracellular (mg/g) ([2]; 144 hours) | Extracellular ([2]; 144 hours) | Intracellular (mg/L) ([3]; 72 hours) | Intracellular (mg/g) ([3]; 72 hours) | Intracellular (mg/L) ([3]; 144 hours) | Intracellular (mg/g) ([3]; 144 hours) | Extracellular ([3]; 72 hours) | Extracellular ([3]; 144 hours) | amount of extracellular beta-carotene or ratio of extracellular secretion compared to control cells [2] | extracellular secretion of beta-carotene, increase compared to the control groups containing the empty vector ([2]; 144 hours) | amount of extracellular squalene or extracellular squalene secretion ratio compared to the control cells [3]
B1 | apparent band | did not appear | 7.04 mg/L | 0.69 mg/g | 0.23 mg/L | 401.51 mg/L | 55.05 mg/g | 485.04 mg/L | 59.43 mg/g | 3.67 mg/L | 13.82 mg/L | – | – | –
B2 | hardly appeared | – | 7.65 mg/L | 0.82 mg/g | 1.4 mg/L | 476.9 mg/L | 89.61 mg/g | 557.03 mg/L | 97.93 mg/g | 166.62 mg/L | 226.51 mg/L | significantly increased | about 23 fold | significant increase
B3 | hardly appeared | – | – | – | – | 252.17 mg/L | 51.68 mg/g | 426.85 mg/L | 72.39 mg/g | 64.55 mg/L | 190.09 mg/L | – | – | significant increase
B4 | – | – | – | – | – | 210.52 mg/L | 44.88 mg/g | 551.64 mg/L | 78.42 mg/g | 4.21 mg/L | 43.25 mg/L | – | – | significant increase
